Test system: Escherichia coli TOP10
Assay: shrunken log2 fold change of peptide-encoding DNA abundance (4.5 h post-induction vs induction); higher = less antimicrobial activity (less host growth inhibition)
Conditions: time post-induction: 4.5 h; library: site-saturation at positions 5, 18, 19, 20
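Also: peptides expressed intracellularly from a pBAD plasmid library in pooled LB shake-flask culture, induced with 0.3% L-arabinose, DNA abundance read by NGS, three biological replicates, DESeq2 with apeglm shrinkage.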

Row | Sequence | shrunken log2 fold change
1 | RRIRCRPPRLPRPRPRPWWSPRP | 0.119
2 | RRIRWRPPRLPRPRPRPLMGPRP | -0.276
3 | RRIRKRPPRLPRPRPRPTGSPRP | 0.423
4 | RRIRGRPPRLPRPRPRPLEVPRP | 0.252
5 | RRIRVRPPRLPRPRPRPTFAPRP | 0.294
6 | RRIRMRPPRLPRPRPRPKGMPRP | 1.37
7 | RRIRWRPPRLPRPRPRPYVGPRP | -0.157
8 | RRIRSRPPRLPRPRPRPCMFPRP | -0.258
9 | RRIRNRPPRLPRPRPRPDVHPRP | 0.0115
10 | RRIRPRPPRLPRPRPRPITPPRP | 0.0216
11 | RRIRLRPPRLPRPRPRPIHRPRP | -0.163
12 | RRIRGRPPRLPRPRPRPVKNPRP | 0.554
13 | RRIRSRPPRLPRPRPRPCINPRP | -0.5
14 | RRIRSRPPRLPRPRPRPELPPRP | 0.0311
15 | RRIRERPPRLPRPRPRPIRDPRP | 0.0201
16 | RRIRYRPPRLPRPRPRPSSPPRP | -0.631
17 | RRIRVRPPRLPRPRPRPGNVPRP | -0.393
18 | RRIRNRPPRLPRPRPRPIDTPRP | -0.0154
19 | RRIRSRPPRLPRPRPRPAVSPRP | 0.105
20 | RRIRQRPPRLPRPRPRPRIGPRP | 0.341
21 | RRIRVRPPRLPRPRPRPNLNPRP | -0.342
22 | RRIRRRPPRLPRPRPRPAMLPRP | 1.02
23 | RRIRRRPPRLPRPRPRPDSCPRP | -0.00351
24 | RRIRNRPPRLPRPRPRPIEFPRP | -0.235
25 | RRIRTRPPRLPRPRPRPGTAPRP | 0.166

Row | Sequence | shrunken log2 fold change
26 | RRIRDRPPRLPRPRPRPLSTPRP | 0.377
27 | RRIRRRPPRLPRPRPRPFQSPRP | 0.0629
28 | RRIRLRPPRLPRPRPRPGTTPRP | -0.221
29 | RRIRFRPPRLPRPRPRPREIPRP | 0.0702
30 | RRIRARPPRLPRPRPRPFVCPRP | -0.476
31 | RRIRARPPRLPRPRPRPFYFPRP | 0.00316
32 | RRIRVRPPRLPRPRPRPWSGPRP | -0.507
33 | RRIRDRPPRLPRPRPRPGTHPRP | 0.129
34 | RRIRPRPPRLPRPRPRPNYIPRP | -0.739
35 | RRIRRRPPRLPRPRPRPIHTPRP | 0.00898
36 | RRIRPRPPRLPRPRPRPDEIPRP | -0.144
37 | RRIRLRPPRLPRPRPRPWAEPRP | 0.13
38 | RRIRWRPPRLPRPRPRPEWGPRP | 0.47
39 | RRIRPRPPRLPRPRPRPCNYPRP | -0.152
40 | RRIRHRPPRLPRPRPRPEGDPRP | 0.383
41 | RRIRTRPPRLPRPRPRPDSDPRP | -0.65
42 | RRIRRRPPRLPRPRPRPCCYPRP | 0.0352
43 | RRIRERPPRLPRPRPRPVLQPRP | -0.347
44 | RRIRKRPPRLPRPRPRPVNKPRP | 0.22
45 | RRIRERPPRLPRPRPRPAVCPRP | 0.086
46 | RRIRIRPPRLPRPRPRPKFFPRP | -0.116
47 | RRIRCRPPRLPRPRPRPGCLPRP | 0.115
48 | RRIRCRPPRLPRPRPRPWLWPRP | 0.0682
49 | RRIRMRPPRLPRPRPRPSAHPRP | 0.423
50 | RRIRQRPPRLPRPRPRPDRHPRP | -0.182

Row | Sequence | shrunken log2 fold change
51 | RRIRDRPPRLPRPRPRPVDTPRP | -0.0119
52 | RRIRGRPPRLPRPRPRPYDIPRP | -0.068
53 | RRIRARPPRLPRPRPRPITAPRP | 0.232
54 | RRIRRRPPRLPRPRPRPIQTPRP | 0.00408
55 | RRIRVRPPRLPRPRPRPHYKPRP | -0.389
56 | RRIRWRPPRLPRPRPRPIIPPRP | -0.104
57 | RRIRKRPPRLPRPRPRPWKTPRP | 0.0649
58 | RRIRRRPPRLPRPRPRPDDSPRP | -0.0232
59 | RRIRPRPPRLPRPRPRPRIYPRP | 0.0335
60 | RRIRPRPPRLPRPRPRPKIVPRP | 0.026
61 | RRIRHRPPRLPRPRPRPYHNPRP | -0.853
62 | RRIRGRPPRLPRPRPRPSIMPRP | 0.16
63 | RRIRCRPPRLPRPRPRPVKNPRP | -0.344
64 | RRIRCRPPRLPRPRPRPHSIPRP | -0.101
65 | RRIRSRPPRLPRPRPRPRFLPRP | 0.159
66 | RRIRYRPPRLPRPRPRPDLWPRP | -0.0329
67 | RRIRTRPPRLPRPRPRPGMHPRP | 0.0032
68 | RRIRWRPPRLPRPRPRPQMGPRP | -0.124
69 | RRIRDRPPRLPRPRPRPAFQPRP | 0.201
70 | RRIRCRPPRLPRPRPRPDLAPRP | 0.102
71 | RRIRTRPPRLPRPRPRPNTWPRP | -0.178
72 | RRIRERPPRLPRPRPRPNWEPRP | 0.0232
73 | RRIRQRPPRLPRPRPRPQFDPRP | -0.178
74 | RRIRARPPRLPRPRPRPLYAPRP | 0.0495
75 | RRIRPRPPRLPRPRPRPDHNPRP | -0.675

Row | Sequence | shrunken log2 fold change
76 | RRIRSRPPRLPRPRPRPTWDPRP | 0.53
77 | RRIRKRPPRLPRPRPRPGDDPRP | 0.758
78 | RRIRNRPPRLPRPRPRPPKSPRP | 0.338
79 | RRIRRRPPRLPRPRPRPHDCPRP | 0.00386
80 | RRIRSRPPRLPRPRPRPDDIPRP | -0.00173
81 | RRIRMRPPRLPRPRPRPTSMPRP | 0.0931
82 | RRIRARPPRLPRPRPRPKYSPRP | -0.39
83 | RRIRSRPPRLPRPRPRPTYQPRP | -0.0198
84 | RRIRPRPPRLPRPRPRPPRGPRP | 0.811
85 | RRIRHRPPRLPRPRPRPNDTPRP | -0.933
86 | RRIRARPPRLPRPRPRPFCVPRP | 0.19
87 | RRIRRRPPRLPRPRPRPPKEPRP | 0.0931
88 | RRIRRRPPRLPRPRPRPKKSPRP | 0.237
89 | RRIRARPPRLPRPRPRPPKQPRP | 0.0504
90 | RRIRCRPPRLPRPRPRPFNDPRP | 0.0223
91 | RRIRYRPPRLPRPRPRPWIDPRP | -0.274
92 | RRIRGRPPRLPRPRPRPSVDPRP | 0.861
93 | RRIRKRPPRLPRPRPRPFAYPRP | 0.0165
94 | RRIRHRPPRLPRPRPRPAFDPRP | -0.00345
95 | RRIRLRPPRLPRPRPRPMKRPRP | -0.0358
96 | RRIRRRPPRLPRPRPRPVFTPRP | 0.188
97 | RRIRERPPRLPRPRPRPQGVPRP | 0.0697
98 | RRIRERPPRLPRPRPRPGFYPRP | 0.057
99 | RRIRPRPPRLPRPRPRPVGHPRP | 0.0338
100 | RRIRKRPPRLPRPRPRPSRKPRP | 0.0758

Row | Sequence | shrunken log2 fold change
101 | RRIRQRPPRLPRPRPRPYPSPRP | -0.161
102 | RRIRRRPPRLPRPRPRPQVQPRP | 0.0152
103 | RRIRIRPPRLPRPRPRPARKPRP | 0.462
104 | RRIRGRPPRLPRPRPRPYQYPRP | -0.0692
105 | RRIRLRPPRLPRPRPRPHFIPRP | -0.249
106 | RRIRTRPPRLPRPRPRPKSLPRP | -0.291
107 | RRIRVRPPRLPRPRPRPCQIPRP | -0.34
108 | RRIRIRPPRLPRPRPRPIVVPRP | -0.666
109 | RRIRCRPPRLPRPRPRPDPWPRP | -0.0438
110 | RRIRRRPPRLPRPRPRPTWIPRP | 0.53
111 | RRIRLRPPRLPRPRPRPEEVPRP | -0.00242
112 | RRIRHRPPRLPRPRPRPCDDPRP | -0.0661
113 | RRIRPRPPRLPRPRPRPYPCPRP | -0.134
114 | RRIRIRPPRLPRPRPRPMRLPRP | 0.0554
115 | RRIRQRPPRLPRPRPRPNYVPRP | -0.426
116 | RRIRKRPPRLPRPRPRPTRYPRP | 0.438
117 | RRIRVRPPRLPRPRPRPTGNPRP | 2.77
118 | RRIRVRPPRLPRPRPRPKMAPRP | -0.222
119 | RRIRLRPPRLPRPRPRPPEVPRP | -0.0157
120 | RRIRIRPPRLPRPRPRPQQDPRP | -0.442
121 | RRIRGRPPRLPRPRPRPPKNPRP | 1.11
122 | RRIRRRPPRLPRPRPRPIYRPRP | -0.273
123 | RRIRCRPPRLPRPRPRPKKYPRP | -0.485
124 | RRIRGRPPRLPRPRPRPMNKPRP | 1.69
125 | RRIRARPPRLPRPRPRPTGNPRP | 0.186

Row | Sequence | shrunken log2 fold change
126 | RRIRDRPPRLPRPRPRPWFCPRP | -0.272
127 | RRIRRRPPRLPRPRPRPRKGPRP | 0.215
128 | RRIRRRPPRLPRPRPRPSYTPRP | -0.227
129 | RRIRPRPPRLPRPRPRPKLRPRP | 0.204
130 | RRIRKRPPRLPRPRPRPYYLPRP | -0.278
131 | RRIRVRPPRLPRPRPRPPAKPRP | 0.603
132 | RRIRVRPPRLPRPRPRPEQPPRP | 0.515
133 | RRIRARPPRLPRPRPRPLKCPRP | 0.381
134 | RRIRCRPPRLPRPRPRPWCRPRP | -0.282
135 | RRIRIRPPRLPRPRPRPFPAPRP | -0.299
136 | RRIRSRPPRLPRPRPRPIQFPRP | -0.396
137 | RRIRIRPPRLPRPRPRPTMMPRP | -0.0891
138 | RRIRYRPPRLPRPRPRPHQHPRP | 0.0599
139 | RRIRVRPPRLPRPRPRPVKPPRP | 0.247
140 | RRIRVRPPRLPRPRPRPRKTPRP | 0.0951
141 | RRIRIRPPRLPRPRPRPASYPRP | -0.0337
142 | RRIRVRPPRLPRPRPRPNIKPRP | -0.497
143 | RRIRMRPPRLPRPRPRPSMPPRP | -0.201
144 | RRIRRRPPRLPRPRPRPMPTPRP | 0.178
145 | RRIRFRPPRLPRPRPRPYGQPRP | -0.101
146 | RRIRARPPRLPRPRPRPSKEPRP | 0.103
147 | RRIRERPPRLPRPRPRPASIPRP | -0.327
148 | RRIRCRPPRLPRPRPRPGFLPRP | -0.245
149 | RRIRARPPRLPRPRPRPVFYPRP | -0.0366
150 | RRIRMRPPRLPRPRPRPFATPRP | 0.609
